# Test results: article PMC7570871, “Evaluation of a New ^177Lu-Labeled Somatostatin Analog for the Treatment of Tumors Expressing Somatostatin Receptor Subtypes 2 and 5” (Molecules, 2020)
# Assays:
# [1] = in vivo; settings: mouse, 100 pmol, total radioactivity
# Experimental: The mice were sacrificed 4 h p.i. and accumulation of the radiotracer in the tumors and in all organs of interest was quantified in a γ-counter.
# [2] = in vivo; settings: female, mouse, total radioactivity
# Experimental: The Veterinary Office (Department of Health) of the Cantonal Basel-Stadt approved the animal experiments (approval no. 2799) in accordance with the Swiss regulations for animal treatment. Female athymic Nude-Foxn1^nu/Foxn1^+ mice (Envigo, The Netherlands), 4–6 weeks old, were injected subcutaneously with 10^7 HEK-SST2 cells in the right shoulder and 10^7 HEK-SST5 cells in the left shoulder, freshly suspended in 100 μL sterile phosphate-buffered saline. The tumors were allowed to grow for 2–3 weeks.
# (§1) At the selected time points, the mice were sacrificed and the organs of interest were collected, rinsed, blotted, weighed and counted in a γ-counter. The results are expressed as a percentage of injected activity per gram (%IA/g) obtained by extrapolation from counts of an aliquot taken from the injected solution as a standard.
# as §1, with “preselected” for “selected”
# [3] = type: physicochemical; settings: pH 7.4
# Experimental: To a pre-saturated mixture of 500 µL 1-octanol and 500 µL of phosphate-buffered saline (PBS) (pH 7.4), 10 µL of 1 µM of the ^177Lu-labeled conjugates were added. The solution was vortexed for 1 h to reach the equilibrium and then centrifuged (3000 rpm) for 10 min. From each phase, 100 µL of the aliquot was removed and measured in a γ-counter. Each measurement was repeated three times. Care was taken to avoid cross-contamination between the phases. The partition coefficient was calculated as the average of the logarithmic values (n = 3) of the ratio between the radioactivity in the organic and the PBS phase.
# [4] = athymic Nude-Foxn1^nu/Foxn1^+, 100 pmol, Pancreas uptake
# [5] = athymic Nude-Foxn1^nu/Foxn1^+, 100 pmol, Spleen uptake
# [6] = athymic Nude-Foxn1^nu/Foxn1^+, 100 pmol, Stomach uptake
# [7] = athymic Nude-Foxn1nu/Foxn1+, 10 pmol, Adrenal uptake
# [8] = athymic Nude-Foxn1nu/Foxn1+, 10 pmol, Blood uptake
# [9] = athymic Nude-Foxn1nu/Foxn1+, 10 pmol, Bone uptake
# [10] = athymic Nude-Foxn1nu/Foxn1+, 10 pmol, Heart uptake
# [11] = athymic Nude-Foxn1nu/Foxn1+, 10 pmol, Intestine uptake
# [12] = athymic Nude-Foxn1nu/Foxn1+, 10 pmol, Kidney uptake
# [13] = athymic Nude-Foxn1nu/Foxn1+, 10 pmol, Liver uptake
# [14] = athymic Nude-Foxn1nu/Foxn1+, 10 pmol, Lung uptake
# [15] = athymic Nude-Foxn1nu/Foxn1+, 10 pmol, Muscle uptake
# [16] = athymic Nude-Foxn1nu/Foxn1+, 10 pmol, Pancreas uptake
# [17] = athymic Nude-Foxn1nu/Foxn1+, 10 pmol, SST2-tumor uptake
# [18] = athymic Nude-Foxn1nu/Foxn1+, 10 pmol, SST5-tumor uptake
# [19] = athymic Nude-Foxn1nu/Foxn1+, 10 pmol, Spleen uptake
# [20] = athymic Nude-Foxn1nu/Foxn1+, 10 pmol, Stomach uptake
# [21] = athymic Nude-Foxn1nu/Foxn1+, 100 pmol, Adrenal uptake
# [22] = athymic Nude-Foxn1nu/Foxn1+, 100 pmol, Blood uptake
# [23] = athymic Nude-Foxn1nu/Foxn1+, 100 pmol, Bone (Femur) uptake
# [24] = athymic Nude-Foxn1nu/Foxn1+, 100 pmol, Femur uptake
# [25] = athymic Nude-Foxn1nu/Foxn1+, 100 pmol, Heart uptake
# [26] = athymic Nude-Foxn1nu/Foxn1+, 100 pmol, Intestine uptake
# [27] = athymic Nude-Foxn1nu/Foxn1+, 100 pmol, Kidney uptake
# [28] = athymic Nude-Foxn1nu/Foxn1+, 100 pmol, Liver uptake
# [29] = athymic Nude-Foxn1nu/Foxn1+, 100 pmol, Lung uptake
# [30] = athymic Nude-Foxn1nu/Foxn1+, 100 pmol, Muscle uptake
# [31] = athymic Nude-Foxn1nu/Foxn1+, 100 pmol, Pancreas uptake
# [32] = athymic Nude-Foxn1nu/Foxn1+, 100 pmol, SST2-tumor uptake
# [33] = athymic Nude-Foxn1nu/Foxn1+, 100 pmol, SST5-tumor uptake
# [34] = athymic Nude-Foxn1nu/Foxn1+, 100 pmol, Spleen uptake
# [35] = athymic Nude-Foxn1nu/Foxn1+, 100 pmol, Stomach uptake
smiles,measurement,setting,value
"CC(C)[C@@H]1NC(=O)[C@H](CCCCN)NC(=O)[C@@H](Cc2c[nH]c3ccccc23)NC(=O)[C@H](Cc2ccc(O)c(I)c2)NC(=O)[C@@H](NC(=O)[C@@H](Cc2ccc(N)c(I)c2)NC(=O)CN2CCN(CC(=O)O)CCN(CC(=O)O)CCN(CC(=O)O)CC2)CSSC[C@@H](C(=O)N[C@H](C(N)=O)[C@@H](C)O)NC1=O [[^177Lu]Lu-DOTA-ST8950, metal not drawn]",tissue uptake at 4 h,[1]; Adrenal uptake,5.45 ± 2.26 %ID/g
same,tissue uptake at 4 h,[1]; Blood uptake,0.1 ± 0.02 %ID/g
same,tissue uptake at 4 h,[1]; Femur uptake,0.56 ± 0.24 %ID/g
same,tissue uptake at 4 h,[1]; Heart uptake,0.18 ± 0.03 %ID/g
same,tissue uptake at 4 h,[1]; Intestine uptake,1.35 ± 0.14 %ID/g
same,tissue uptake at 4 h,[1]; Kidney uptake,8.96 ± 1.39 %ID/g
same,tissue uptake at 4 h,[1]; Liver uptake,2.28 ± 0.2 %ID/g
same,tissue uptake at 4 h,[1]; Lung uptake,2.43 ± 1.21 %ID/g
same,tissue uptake at 4 h,[1]; Muscle uptake,0.15 ± 0.02 %ID/g
same,tissue uptake at 4 h,[1]; SST(-)-tumor uptake,0.7 ± 0.08 %ID/g
same,tissue uptake at 4 h,[1]; Spleen uptake,0.84 ± 0.06 %ID/g
same,tissue uptake at 4 h,[1]; Stomach uptake,4.89 ± 0.94 %ID/g
same,tissue uptake at 168 h,"[2]; athymic Nude-Foxn1^nu/Foxn1^+, 100 pmol, Liver uptake",0.54 ± 0.09 %ID/g
same,tissue uptake at 24 h,[2]; [4],1.68 ± 0.27 %ID/g
same,tissue uptake at 72 h,[2]; [4],0.72 ± 0.14 %ID/g
same,tissue uptake at 168 h,[2]; [4],0.37 ± 0.05 %ID/g
same,tissue uptake at 24 h,[2]; [5],0.36 ± 0.24 %ID/g
same,tissue uptake at 72 h,[2]; [5],0.38 ± 0.12 %ID/g
same,tissue uptake at 168 h,[2]; [5],0.27 ± 0.05 %ID/g
same,tissue uptake at 24 h,[2]; [6],2.61 ± 0.44 %ID/g
same,tissue uptake at 72 h,[2]; [6],1.66 ± 0.49 %ID/g
same,tissue uptake at 168 h,[2]; [6],0.99 ± 0.04 %ID/g
same,tissue uptake at 1 h,[2]; [7],6.01 ± 1.15 %ID/g
same,tissue uptake at 4 h,[2]; [7],5.37 ± 1.17 %ID/g
same,tissue uptake at 1 h,[2]; [8],1.3 ± 0.24 %ID/g
same,tissue uptake at 4 h,[2]; [8],0.15 ± 0.02 %ID/g
same,tissue uptake at 1 h,[2]; [9],1.35 ± 0.25 %ID/g
same,tissue uptake at 4 h,[2]; [9],1.12 ± 0.38 %ID/g
same,tissue uptake at 1 h,[2]; [10],0.84 ± 0.18 %ID/g
same,tissue uptake at 4 h,[2]; [10],0.2 ± 0.04 %ID/g
same,tissue uptake at 1 h,[2]; [11],3.08 ± 0.38 %ID/g
same,tissue uptake at 4 h,[2]; [11],2.29 ± 0.42 %ID/g
same,tissue uptake at 1 h,[2]; [12],11.7 ± 1.79 %ID/g
same,tissue uptake at 4 h,[2]; [12],10.8 ± 1.27 %ID/g
same,tissue uptake at 1 h,[2]; [13],2.73 ± 0.59 %ID/g
same,tissue uptake at 4 h,[2]; [13],2.2 ± 0.27 %ID/g
same,tissue uptake at 1 h,[2]; [14],7.12 ± 2.59 %ID/g
same,tissue uptake at 4 h,[2]; [14],3.81 ± 0.98 %ID/g
same,tissue uptake at 1 h,[2]; [15],0.4 ± 0.07 %ID/g
same,tissue uptake at 4 h,[2]; [15],0.13 ± 0.02 %ID/g
same,tissue uptake at 1 h,[2]; [16],5.99 ± 1.75 %ID/g
same,tissue uptake at 4 h,[2]; [16],3.21 ± 0.5 %ID/g
same,tissue uptake at 1 h,[2]; [17],12.1 ± 3.94 %ID/g
same,tissue uptake at 4 h,[2]; [17],10.3 ± 2.78 %ID/g
same,tissue uptake at 1 h,[2]; [18],1.94 ± 0.46 %ID/g
same,tissue uptake at 4 h,[2]; [18],1.52 ± 0.75 %ID/g
same,tissue uptake at 1 h,[2]; [19],1.82 ± 0.26 %ID/g
same,tissue uptake at 4 h,[2]; [19],0.96 ± 0.18 %ID/g
same,tissue uptake at 1 h,[2]; [20],9.68 ± 2.34 %ID/g
same,tissue uptake at 4 h,[2]; [20],6.03 ± 1.28 %ID/g
same,tissue uptake at 1 h,[2]; [21],4.23 ± 0.68 %ID/g
same,tissue uptake at 4 h,[2]; [21],5.21 ± 1.92 %ID/g
same,tissue uptake at 24 h,[2]; [21],3.81 ± 1.08 %ID/g
same,tissue uptake at 72 h,[2]; [21],2.86 ± 1.3 %ID/g
same,tissue uptake at 168 h,[2]; [21],1.84 ± 0.49 %ID/g
same,tissue uptake at 1 h,[2]; [22],0.96 ± 0.23 %ID/g
same,tissue uptake at 4 h,[2]; [22],0.09 ± 0.03 %ID/g
same,tissue uptake at 24 h,[2]; [22],0.02 %ID/g
same,tissue uptake at 72 h,[2]; [22],0.01 %ID/g
same,tissue uptake at 1 h,[2]; [23],0.74 ± 0.11 %ID/g
same,tissue uptake at 4 h,[2]; [23],0.49 ± 0.11 %ID/g
same,tissue uptake at 24 h,[2]; [24],0.3 ± 0.05 %ID/g
same,tissue uptake at 72 h,[2]; [24],0.19 ± 0.05 %ID/g
same,tissue uptake at 168 h,[2]; [24],0.11 ± 0.01 %ID/g
same,tissue uptake at 1 h,[2]; [25],0.69 ± 0.09 %ID/g
same,tissue uptake at 4 h,[2]; [25],0.17 ± 0.03 %ID/g
same,tissue uptake at 24 h,[2]; [25],0.08 ± 0.01 %ID/g
same,tissue uptake at 72 h,[2]; [25],0.06 ± 0.02 %ID/g
same,tissue uptake at 168 h,[2]; [25],0.04 ± 0.01 %ID/g
same,tissue uptake at 1 h,[2]; [26],1.95 ± 0.65 %ID/g
same,tissue uptake at 4 h,[2]; [26],1.14 ± 0.42 %ID/g
same,tissue uptake at 24 h,[2]; [26],0.51 ± 0.09 %ID/g
same,tissue uptake at 72 h,[2]; [26],0.28 ± 0.06 %ID/g
same,tissue uptake at 168 h,[2]; [26],0.12 ± 0.02 %ID/g
same,tissue uptake at 1 h,[2]; [27],~10 %ID/g
same,tissue uptake at 4 h,[2]; [27],~10 %ID/g
same,tissue uptake at 24 h,[2]; [27],5.99 ± 0.41 %ID/g
same,tissue uptake at 72 h,[2]; [27],3.2 ± 0.84 %ID/g
same,tissue uptake at 168 h,[2]; [27],1.42 ± 0.38 %ID/g
same,tissue uptake at 1 h,[2]; [28],2.6 ± 0.42 %ID/g
same,tissue uptake at 4 h,[2]; [28],2.19 ± 0.48 %ID/g
same,tissue uptake at 24 h,[2]; [28],1.23 ± 0.16 %ID/g
same,tissue uptake at 72 h,[2]; [28],0.85 ± 0.21 %ID/g
same,tissue uptake at 1 h,[2]; [29],3.9 ± 0.84 %ID/g
same,tissue uptake at 4 h,[2]; [29],1.69 ± 0.4 %ID/g
same,tissue uptake at 24 h,[2]; [29],1.16 ± 0.1 %ID/g
same,tissue uptake at 72 h,[2]; [29],0.46 ± 0.08 %ID/g
same,tissue uptake at 168 h,[2]; [29],0.23 ± 0.09 %ID/g
same,tissue uptake at 1 h,[2]; [30],0.3 ± 0.07 %ID/g
same,tissue uptake at 4 h,[2]; [30],0.1 ± 0.02 %ID/g
same,tissue uptake at 24 h,[2]; [30],0.06 %ID/g
same,tissue uptake at 72 h,[2]; [30],0.04 ± 0.01 %ID/g
same,tissue uptake at 168 h,[2]; [30],0.01 %ID/g
same,tissue uptake at 1 h,[2]; [31],6.36 ± 1.39 %ID/g
same,tissue uptake at 4 h,[2]; [31],4.38 ± 1.02 %ID/g
same,tissue uptake at 1 h,[2]; [32],14.2 ± 1.78 %ID/g
same,tissue uptake at 4 h,[2]; [32],15.5 ± 3.63 %ID/g
same,tissue uptake at 24 h,[2]; [32],9.32 ± 2.02 %ID/g
same,tissue uptake at 72 h,[2]; [32],4.22 ± 1.43 %ID/g
same,tissue uptake at 168 h,[2]; [32],0.79 ± 0.13 %ID/g
same,tissue uptake at 1 h,[2]; [33],1.78 ± 0.35 %ID/g
same,tissue uptake at 4 h,[2]; [33],1.87 ± 0.49 %ID/g
same,tissue uptake at 24 h,[2]; [33],0.88 ± 0.16 %ID/g
same,tissue uptake at 72 h,[2]; [33],0.35 ± 0.08 %ID/g
same,tissue uptake at 168 h,[2]; [33],0.08 ± 0.01 %ID/g
same,tissue uptake at 1 h,[2]; [34],1.29 ± 0.19 %ID/g
same,tissue uptake at 4 h,[2]; [34],0.68 ± 0.11 %ID/g
same,tissue uptake at 1 h,[2]; [35],5.63 ± 0.79 %ID/g
same,tissue uptake at 4 h,[2]; [35],4.94 ± 0.9 %ID/g
same,logD,[3],-1.2 ± 0.1
